Measurements as given in PMC10397247.

Experiments:
Assay in all cases: two-hybrid library CCNG1;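 further: natural log of median RNA to DNA barcode read ratio; higher means stronger binding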
4H492-bA = molecular target: T1, 4H492-bA
T1 chain: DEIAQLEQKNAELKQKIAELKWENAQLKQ

4H741-bA = molecular target: T2, 4H741-bA
T2 chain: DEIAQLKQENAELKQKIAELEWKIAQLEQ

4H477-bN = molecular target: T3, 4H477-bN
T3 chain: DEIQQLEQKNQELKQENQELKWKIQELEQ

4H492-bN = molecular target: T4, 4H492-bN
T4 chain: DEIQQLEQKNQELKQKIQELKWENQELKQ

4H741-bN = molecular target: T5, 4H741-bN
T5 chain: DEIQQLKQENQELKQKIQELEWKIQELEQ

4H932-bN = molecular target: T6, 4H932-bN
T6 chain: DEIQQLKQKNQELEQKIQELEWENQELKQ

4H754-bH = molecular target: T7, 4H754-bH
T7 chain: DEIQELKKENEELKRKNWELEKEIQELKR

4H780-bH = molecular target: T8, 4H780-bH
T8 chain: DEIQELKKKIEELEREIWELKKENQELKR

4H797-bH = molecular target: T9, 4H797-bH
T9 chain: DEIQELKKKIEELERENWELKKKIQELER

4H855-bH = molecular target: T10, 4H855-bH
T10 chain: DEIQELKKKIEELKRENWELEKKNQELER

4H883-bH = molecular target: T11, 4H883-bH
T11 chain: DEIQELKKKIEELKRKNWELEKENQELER

4H908-bH = molecular target: T12, 4H908-bH
T12 chain: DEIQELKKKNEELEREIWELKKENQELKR

4H918-bH = molecular target: T13, 4H918-bH
T13 chain: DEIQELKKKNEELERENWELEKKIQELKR

4H953-bH = molecular target: T14, 4H953-bH
T14 chain: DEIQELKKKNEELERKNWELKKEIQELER

4H967-bH = molecular target: T15, 4H967-bH
T15 chain: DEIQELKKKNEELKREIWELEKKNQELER

4H968-bH = molecular target: T16, 4H968-bH
T16 chain: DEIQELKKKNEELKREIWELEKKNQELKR

B1: 4H492-bA (peptide)
chain: DEIAQLEQKNAELKQKIAELKWENAQLKQ
interaction score (4H492-bA): -0.566 | interaction score (4H741-bA): -1.59

B2: 4H477-bN (peptide)
chain: DEIQQLEQKNQELKQENQELKWKIQELEQ
interaction score (4H477-bN): -1.14 | interaction score (4H492-bN): -0.94 | interaction score (4H741-bN): -1.17 | interaction score (4H932-bN): -0.0984

B3: 4H754-bH (peptide)
chain: DEIQELKKENEELKRKNWELEKEIQELKR
interaction score (4H754-bH): 1.36 | interaction score (4H780-bH): -0.00466 | interaction score (4H797-bH): -0.0415 | interaction score (4H855-bH): -0.362 | interaction score (4H883-bH): -0.29 | interaction score (4H908-bH): 0.329 | interaction score (4H918-bH): 0.604 | interaction score (4H953-bH): 0.539 | interaction score (4H967-bH): -0.713 | interaction score (4H968-bH): -0.182
